Experimental data taken from PMC8419929.

Legend:
[1] = molecular target: rat lutropin/chorionic gonadotropin receptor (rLH/CGR) (rat) (UniProt P16235)
[2] = molecular target: rat follicle-stimulating hormone receptor (rFSHR) (rat) (UniProt P20395)
Sequence of UniProt P20395 (P20395 18-692): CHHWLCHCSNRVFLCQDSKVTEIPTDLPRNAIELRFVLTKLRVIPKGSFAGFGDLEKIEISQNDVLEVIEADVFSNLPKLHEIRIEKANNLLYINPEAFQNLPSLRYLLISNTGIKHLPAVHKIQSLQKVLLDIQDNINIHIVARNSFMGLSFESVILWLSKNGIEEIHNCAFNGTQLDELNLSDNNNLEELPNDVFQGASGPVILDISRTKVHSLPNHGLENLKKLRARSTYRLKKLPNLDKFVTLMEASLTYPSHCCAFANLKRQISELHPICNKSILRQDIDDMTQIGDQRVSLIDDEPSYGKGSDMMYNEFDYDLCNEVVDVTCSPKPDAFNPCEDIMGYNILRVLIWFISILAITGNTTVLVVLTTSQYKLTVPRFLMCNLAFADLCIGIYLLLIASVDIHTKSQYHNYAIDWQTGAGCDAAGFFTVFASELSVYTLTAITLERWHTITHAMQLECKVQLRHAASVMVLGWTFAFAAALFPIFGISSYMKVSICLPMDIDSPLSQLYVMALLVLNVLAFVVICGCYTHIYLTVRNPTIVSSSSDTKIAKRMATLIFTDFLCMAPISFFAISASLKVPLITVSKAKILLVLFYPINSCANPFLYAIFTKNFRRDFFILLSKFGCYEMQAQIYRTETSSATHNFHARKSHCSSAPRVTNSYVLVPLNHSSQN

Sequence of UniProt P16235 (P16235 27-700): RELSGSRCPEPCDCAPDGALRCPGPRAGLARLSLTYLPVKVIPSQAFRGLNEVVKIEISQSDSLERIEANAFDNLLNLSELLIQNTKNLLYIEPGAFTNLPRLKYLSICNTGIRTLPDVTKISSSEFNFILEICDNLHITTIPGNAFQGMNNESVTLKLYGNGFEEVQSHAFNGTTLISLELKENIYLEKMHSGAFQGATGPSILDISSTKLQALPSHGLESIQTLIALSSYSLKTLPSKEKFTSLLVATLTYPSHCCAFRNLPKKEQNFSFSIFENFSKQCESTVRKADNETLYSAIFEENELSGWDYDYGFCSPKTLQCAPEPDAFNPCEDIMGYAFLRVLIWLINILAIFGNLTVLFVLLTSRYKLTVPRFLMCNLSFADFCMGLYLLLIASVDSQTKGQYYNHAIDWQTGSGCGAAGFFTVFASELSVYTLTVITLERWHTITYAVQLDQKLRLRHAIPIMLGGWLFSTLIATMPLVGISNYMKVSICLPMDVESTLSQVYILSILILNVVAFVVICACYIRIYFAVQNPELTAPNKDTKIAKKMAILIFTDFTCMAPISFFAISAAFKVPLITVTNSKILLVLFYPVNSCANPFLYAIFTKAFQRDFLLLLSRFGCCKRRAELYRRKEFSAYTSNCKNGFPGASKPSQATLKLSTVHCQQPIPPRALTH

Row | EC50 of cAMP production (HTRF cAMP immunoassay) in CHO-K1 cells transiently expressing rLH/CGR, 30 min at room temperature, mock-transfected cells subtracted [1] | EC50 of cAMP production (HTRF cAMP immunoassay) in CHO-K1 cells transiently expressing rFSHR, 30 min at room temperature, mock-transfected cells subtracted [2] | Substance
1 | 4.6 ng/mL | 27.1 ng/mL | recombinant single-chain equine chorionic gonadotropin, rec-eCGβ/α-wt (from UniProt P08751 21-169) (ligand)
2 | 24.5 ng/mL | 63.1 ng/mL | rec-eCGβ-D/α (single-chain eCG, CTP region of the β-subunit deleted) (ligand)
3 | 17.6 ng/mL | 112 ng/mL | rec-eCGβ/αΔ56 (single-chain eCG, Asn56 of the α-subunit replaced with Gln) (from UniProt P08751 21-169) (ligand)
4 | 334 ng/mL | 94.9 ng/mL | rec-eCGβ-D/αΔ56 (single-chain eCG double mutant: CTP of the β-subunit deleted and Asn56 of the α-subunit replaced with Gln) (ligand)
